Results reported in US20250296971A1, “GASTRIC INHIBITORY PEPTIDE RECEPTOR LIGANDS” (priority 2021, published 2025).
*1 amine or outer side, *2 acyl side, *3 side chain or, on linkers, in order; H or OH if unused. Bridges are numbered along the chain shown (N, C = ends). Primed or numbered codes have the meaning given here. Where no end group is shown, it is not given here. Side-chain parts run from the residue outwards. [ ]: non-standard residue; d: D form. The star is where a group is joined. Ttds = 1,13-diamino-4,7,10-trioxatridecan-succinamic acid, NCCCOCCOCCOCCCNC(=O)CCC(=O)*; DOTA(In) = O=C1CN2CCN3CCN(CC(=O)*)CCN(CC2)CC(=O)[O][In]([O]1)[O]C(=O)C3; DOTA(Lu) = O=C1CN2CCN3CCN(CC(=O)*)CCN(CC2)CC(=O)[O][Lu]([O]1)[O]C(=O)C3; NH(1-deoxy-D-glucityl) = OC[C@@H](O)[C@@H](O)[C@H](O)[C@@H](O)CN*; dE(AGLU) = D-glutamic acid bearing 1-amino-1-deoxy-D-glucitol; Pro(trans-4-NH2) = O=C([C@@H]1C[C@@H](N[*:3])CN1[*:1])[*:2]; DOTA = O=C(O)CN1CCN(CC(=O)O)CCN(CC(=O)*)CCN(CC(=O)O)CC1; 2Lut = 2,6-lutidylidene bridge between two thiols; Trp(5-Cl) = N[C@@H](Cc1c[nH]c2ccc(Cl)cc12)C(=O)O; Pyridine(2,6-diCH2) = c1cc(C[*:1])nc(C[*:2])c1; 2Lut″ = 2,6-lutidylidene linking two thiols; APAc = 4-amino-1-carboxymethylpiperidine; mXylylene = c1cc(C[*:1])cc(C[*:2])c1; Glutaryl = O=C(CCCC(=O)[*:2])[*:1]; AGLU = 1-amino-1-deoxy-D-glucitol; dDap(NTASEROL) = not defined here; Cya = N[C@@H](CS(=O)(=O)O)C(=O)O; Hyp = O=C(O)[C@@H]1C[C@@H](O)CN1; Cysteamide = C(CS[*:3])N[*:1]; NTASEROL = not defined here; Api = NC1(C(=O)O)CCNCC1; Thp = NC1(C(=O)O)CCOCC1; Aib = CC(C)(N)C(=O)O

B1: AGLU-Glutar-Asp-Trp-5Clw-Hyp-Glu-leu-[Cys(2Lut)-Apc(InDOTA)-Leu-Ile-Cys]-APAc-glu(AGLU)-NH2 (peptide)
peptide: DWXXEXCXLIC
modifications: AGLU-Glutar; 5Clw; Hyp; D-leu; Apc(InDOTA); 2Lut bridge Cys-Cys; APAc; D-glu(AGLU); C-term NH2
B2: Ac-Cya-Trp-5Clw-Hyp-Glu-leu-[Cys(2Lut)-Aib-Leu-Ile-AET] (peptide)
peptide: Ac-[Cya]W[Trp(5-Cl)][Hyp]E[dL]C[Aib]LI[Cysteamide]
modifications: linker (positions not given here) via Pyridine(2,6-diCH2); not fully specified (bridges); printed as Ac-Cya-Trp-5Clw-Hyp-Glu-leu-[Cys(2Lut)-Aib-Leu-Ile-AET]
B3: Ac-Ser-Trp-5Clw-Hyp-Glu-leu-[Cys(2Lut)-Thp-Leu-Ile-Cys]-NH2 (peptide)
peptide: Ac-SW[Trp(5-Cl)][Hyp]E[dL]C[Thp]LIC-NH2
modifications: linker 7-11 via Pyridine(2,6-diCH2)
SMILES: CC[C@H](C)[C@@H]1NC(=O)[C@H](CC(C)C)NC(=O)C2(CCOCC2)NC(=O)[C@@H](NC(=O)[C@@H](CC(C)C)NC(=O)[C@H](CCC(=O)O)NC(=O)[C@@H]2C[C@@H](O)CN2C(=O)[C@H](Cc2c[nH]c3ccc(Cl)cc23)NC(=O)[C@H](Cc2c[nH]c3ccccc23)NC(=O)[C@H](CO)NC(C)=O)CSCc2cccc(n2)CSC[C@@H](C(N)=O)NC1=O
B4: DOTA-Ttds-Asp-Trp-5Clw-Pro-Glu-leu-[Cys(3MeBn)-Apc(Ac)-Leu-Ile-AET] (peptide)
peptide: {DOTA-Ttds}-DW[Trp(5-Cl)]PE[dL]C[Api](Ac)LI[Cysteamide]
modifications: linker (positions not given here) via mXylylene; not fully specified (bridges); printed as DOTA-Ttds-Asp-Trp-5Clw-Pro-Glu-leu-[Cys(3MeBn)-Apc(Ac)-Leu-Ile-AET]
B5: HO-Succinyl-Trp-5Clw-Tap-Glu-leu-[Cys(2Lut)-Apc-Leu-Ile-Cys]-APAc-glu(AGLU)-Lys(DOTA)-NH2 (peptide)
peptide: W[Trp(5-Cl)][Pro(trans-4-NH2)]E[dL]C[Api]LIC-{APAc-dE(AGLU)-K(DOTA)-NH2}
modifications: linker 6-10 via 2Lut; not fully specified (N-terminus); printed as HO-Succinyl-Trp-5Clw-Tap-Glu-leu-[Cys(2Lut)-Apc-Leu-Ile-Cys]-APAc-glu(AGLU)-Lys(DOTA)-NH2
B6: AGLU-Glutar-Asp-Trp-5Clw-Hyp-Glu-leu-[Cys(2Lut)-Apc(DOTA)-Leu-Ile-AET] (peptide)
peptide: {AGLU-Glutaryl}-DW[Trp(5-Cl)][Hyp]E[dL]C[Api](DOTA)LI[Cysteamide]
modifications: thioether (positions not given here) via Pyridine(2,6-diCH2); not fully specified (bridges); printed as AGLU-Glutar-Asp-Trp-5Clw-Hyp-Glu-leu-[Cys(2Lut)-Apc(DOTA)-Leu-Ile-AET]

Assays:
[1] = target: human Gastric Inhibitory Peptide Receptor (GIPR) (human) (UniProt P48546); assay: FACS competition vs biotinylated GIP-057 on CHO-K1-hGIPR cells; category A: pIC50 >8.0
Chain of human Gastric Inhibitory Peptide Receptor (GIPR) (human) (P48546 22-466 limits assumed): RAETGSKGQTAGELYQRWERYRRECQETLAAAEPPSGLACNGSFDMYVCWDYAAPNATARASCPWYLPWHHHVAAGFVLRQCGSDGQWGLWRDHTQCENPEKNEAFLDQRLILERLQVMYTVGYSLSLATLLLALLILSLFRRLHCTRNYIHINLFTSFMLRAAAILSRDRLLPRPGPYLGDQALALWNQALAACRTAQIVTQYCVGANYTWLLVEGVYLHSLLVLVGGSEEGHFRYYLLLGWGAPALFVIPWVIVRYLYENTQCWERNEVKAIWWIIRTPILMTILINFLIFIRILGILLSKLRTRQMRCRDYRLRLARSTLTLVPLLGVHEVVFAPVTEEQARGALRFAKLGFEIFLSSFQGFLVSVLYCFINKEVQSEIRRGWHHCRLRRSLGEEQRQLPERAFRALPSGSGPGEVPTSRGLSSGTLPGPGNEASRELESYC

[2] = target: biotinylated extracellular domain of the human GIP receptor (bioGIPR) (human) (UniProt P48546); assay: SPR single cycle kinetics, bioGIPR captured on chip; category A: t1/2 >15 min
Chain of biotinylated extracellular domain of the human GIP receptor (bioGIPR) (human) (P48546 24-138 limits assumed): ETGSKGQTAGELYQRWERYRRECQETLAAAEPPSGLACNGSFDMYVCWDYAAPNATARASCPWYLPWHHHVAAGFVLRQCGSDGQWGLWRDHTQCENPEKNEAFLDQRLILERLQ

[3] = target: biotinylated extracellular domain of the human GIP receptor (bioGIPR) (human) (UniProt P48546); assay: SPR single cycle kinetics, bioGIPR captured on chip; category A: pKD >9.0
[4] = target: human Gastric Inhibitory Peptide Receptor (human) (UniProt P48546); assay: FACS competition with GIP-057 on CHO-K1-hGIPR cells; pIC50 category A: >8.0
Chain of human Gastric Inhibitory Peptide Receptor (human) (P48546 22-466 limits assumed): as the sequence (P48546 22-466 limits assumed) above

Row | Binder | pIC50 [1] | t1/2 [2] | pKD [3] | pIC50 [4]
1 | {NTASEROL}-DW[Trp(5-Cl)][Pro(trans-4-NH2)]E[dL]C[Api](DOTA)LIC-{APAc-dDap(NTASEROL)-NH2} (linker 7-11 via Pyridine(2,6-diCH2); reading uncertain) [NTASEROL-Asp-Trp-5Clw-Tap-Glu-leu-[Cys(2Lut)-Apc(DOTA)-Leu-Ile-Cys]-APAc-dap(NTASEROL)-NH2] | > 8 pic50 | > 15 min | > 9 pkd | –
2 | B1 | – | > 15 min | > 9 pkd | > 8 pic50
3 | B2 | – | > 15 min | > 9 pkd | > 8 pic50
4 | {AGLU-Glutaryl}-DW[Trp(5-Cl)][Pro(trans-4-NH2)]E[dL]C[Api](DOTA(In))LIC-{APAc-dE(AGLU)-NH2} (linker 7-11 via Pyridine(2,6-diCH2)) [AGLU-Glutar-Asp-Trp-5Clw-Tap-Glu-leu-[Cys(2Lut)-Apc(InDOTA)-Leu-Ile-Cys]-APAc-glu(AGLU)-NH2] | – | > 15 min | > 9 pkd | > 8 pic50
5 | {AGLU-Glutaryl}-DW[Trp(5-Cl)][Hyp]E[dL]C[Api](DOTA(Lu))LIC-{APAc-dE(AGLU)-NH2} (linker 7-11 via Pyridine(2,6-diCH2)) [AGLU-Glutar-Asp-Trp-5Clw-Hyp-Glu-leu-[Cys(2Lut)-Apc(LuDOTA)-Leu-Ile-Cys]-APAc-glu(AGLU)-NH2] | – | > 15 min | > 9 pkd | > 8 pic50
6 | {AGLU-Glutaryl}-DW[Trp(5-Cl)][Hyp]E[dL]C[Thp]LIC-{APAc-dE(AGLU)-K(DOTA)-NH2} (linker 7-11 via Pyridine(2,6-diCH2)) [AGLU-Glutar-Asp-Trp-5Clw-Hyp-Glu-leu-[Cys(2Lut)-Thp-Leu-Ile-Cys]-APAc-glu(AGLU)-Lys(DOTA)-NH2] | – | > 15 min | > 9 pkd | > 8 pic50
7 | B3 | – | > 15 min | > 9 pkd | > 8 pic50
8 | B4 | – | > 15 min | > 9 pkd | > 8 pic50
9 | B5 | – | > 15 min | > 9 pkd | > 8 pic50
10 | B6 | – | > 15 min | > 9 pkd | > 8 pic50
11 | {AGLU-Glutaryl-APAc}-DW[Trp(5-Cl)][Pro(trans-4-NH2)]([Glutaryl-NH(1-deoxy-D-glucityl)])E[dL]C[Api](DOTA)LIC-{APAc-dE(AGLU)-NH2} (linker 7-11 via Pyridine(2,6-diCH2)) | – | > 15 min | > 9 pkd | > 8 pic50
